From the supplement of paper PMC7877785
± gives the uncertainty stated by the source.

Assay: self-splicing fitness, log relative to wild type (ln ratio); higher = more splicing; Tetrahymena group I intron in knt gene, E. coli kanamycin selection, DiMSum; sequences stand for … in CUCUCU…GGAGGGAAAAGUUAUCAGGCAUGCACCUGGUAGCUAGUCUUUAAACCAAUAGAUUGCAUCGGUUUAAAAGGCAAGACCGUCAAAUUGCGGGAAAGGGGUCAACAGCCGUUCAGUACCAAGUCUCAGGGGAAACUUUGAGAUGGCCUUGCAAAGGGUAUGGUAAUAAGCUGACGGACAUGGUCCUAACCACGCAGCCAAGUCCUAAGUCAACAGAUCUUCUGUUGAUAUGGAUGCAGUUCACAGACUAAAUGUCGGUCGGGGAAGAUGUAUUCUUCUCAUAAGAUAUAGUCGGACCUCUCCUUAAUGGGAGCUAGCGGAUGAAGUGAUGCAACACUGGAGCCGCUGGGAACUAAUUUGUAUGCGAAAGUAUAUUGAUUAGUUUUGGAGUACUCGUGGUCG
Procedure, shortened: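 Pooled colonies went to amplicon sequencing on an Illumina HiSeq 2500 after six replicate transformations. The plates were LB agar with 100 μg/mL carbenicillin, 50 μM IPTG and 0.2% rhamnose, with or without 25 μg/mL kanamycin, incubated overnight at 37°C or 30°C. The E. coli BL21(DE3) library had all eight P1ex-region intron nucleotides randomised, the intron placed in the knt kanamycin-resistance gene on pET-22b(+). DiMSum fitness is the error-weighted combination of replicate fold changes, kanamycin against none, normalised to wild type.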

Sequence	self-splicing fitness (ln) (30 °C)	self-splicing fitness (ln) (37 °C)
CCACAGCAAUAUUACGGUUU	-4.31 ± 0.19	-2.8 ± 0.16
GCGAAGCAAUAUUACGAUCA	-1.82 ± 0.34	-1.01 ± 0.3
AUGAAGCAAUAUUACGGGAC	-2.09 ± 0.32	-1.65 ± 0.43
GUUUAGCAAUAUUACGUUUC	-2.17 ± 0.21	-2.07 ± 0.23
UCAUAGCAAUAUUACGUAGA	-1.88 ± 0.097	-1.8 ± 0.12
AUUGAGCAAUAUUACGGCCA	-2.29 ± 0.18	-0.921 ± 0.18
CCGAAGCAAUAUUACGUGGU	-4.68 ± 0.29	-2.24 ± 0.2
CGUCAGCAAUAUUACGCGGG	-3.87 ± 0.24	-2.94 ± 0.21
UAGUAGCAAUAUUACGCAUG	-1.58 ± 0.092	-0.443 ± 0.095
UCUGAGCAAUAUUACGGCAC	-4.07 ± 0.47	-1.06 ± 0.28
AAGAAGCAAUAUUACGAGUU	-1.15 ± 0.079	-0.169 ± 0.11
CCGUAGCAAUAUUACGUACC	-4.4 ± 0.29	-1.72 ± 0.34
CUCCAGCAAUAUUACGCAGA	-3.72 ± 0.35	-1.94 ± 0.2
GUAAAGCAAUAUUACGGGGA	-2.91 ± 0.19	-2.4 ± 0.21
CACUAGCAAUAUUACGUUUG	-2.29 ± 0.079	-1.42 ± 0.11
CCACAGCAAUAUUACGAUCU	-3.57 ± 0.16	-2.43 ± 0.16
AAGAAGCAAUAUUACGGUAC	-2.37 ± 0.19	-2.96 ± 0.33
GCCGAGCAAUAUUACGUAUA	-3.29 ± 0.15	-1.87 ± 0.12
GGGGAGCAAUAUUACGGCUA	-0.686 ± 0.18	-0.291 ± 0.17
CUCAAGCAAUAUUACGGGCU	-4.09 ± 0.27	-3 ± 0.26
CAUAAGCAAUAUUACGGGAG	-1.96 ± 0.097	-1.14 ± 0.095
UUCAAGCAAUAUUACGCAAG	-2.1 ± 0.2	-0.676 ± 0.17
CUGGAGCAAUAUUACGCGUU	-3.89 ± 0.33	-1.86 ± 0.27
GCUAAGCAAUAUUACGUAUA	-1.76 ± 0.12	-0.55 ± 0.13
CCACAGCAAUAUUACGCCUU	-3.21 ± 0.17	-1.59 ± 0.14
UUGAAGCAAUAUUACGACCA	-0.132 ± 0.12	0.61 ± 0.15

Sequence	self-splicing fitness (ln) (30 °C)	self-splicing fitness (ln) (37 °C)
AGUCAGCAAUAUUACGUAUC	-1.19 ± 0.076	-0.186 ± 0.11
CACAAGCAAUAUUACGUAUC	-4.88 ± 0.25	-2.19 ± 0.15
GACCAGCAAUAUUACGCUUG	-0.638 ± 0.089	-0.56 ± 0.11
AAACAGCAAUAUUACGGAGU	-3.77 ± 0.16	-2.53 ± 0.11
CGAGAGCAAUAUUACGUUAA	-2.26 ± 0.22	–
AGUCAGCAAUAUUACGGUAU	-0.592 ± 0.05	-0.99 ± 0.063
CCCGAGCAAUAUUACGAACU	–	-1.58 ± 0.39
CCCAAGCAAUAUUACGUCGC	-3.94 ± 0.28	-2.38 ± 0.16
AUUCAGCAAUAUUACGUGCC	-1.51 ± 0.1	-0.682 ± 0.14
UGAAAGCAAUAUUACGGUUU	-1.87 ± 0.1	-1.16 ± 0.12
CAGGAGCAAUAUUACGCGUC	-4.22 ± 0.36	-3.04 ± 0.4
GCGGAGCAAUAUUACGGCGG	-3.3 ± 0.3	-2.6 ± 0.32
UACAAGCAAUAUUACGAUGC	-3.69 ± 0.28	-3.13 ± 0.29
AUGAAGCAAUAUUACGGAGU	-1.4 ± 0.089	-0.447 ± 0.094
GCUUAGCAAUAUUACGCCAU	–	-2.2 ± 0.39
ACGGAGCAAUAUUACGUGGU	-3.91 ± 0.4	-1.08 ± 0.2
GAUCAGCAAUAUUACGUUCG	-1.33 ± 0.063	0.136 ± 0.073
CGUCAGCAAUAUUACGUGGA	-3.65 ± 0.24	-0.946 ± 0.17
GGAGAGCAAUAUUACGAUAA	–	-0.957 ± 0.43
UGCUAGCAAUAUUACGCGUA	-0.838 ± 0.11	-0.531 ± 0.1
UGGGAGCAAUAUUACGUUGA	-3.73 ± 0.37	-2.06 ± 0.27
GUGCAGCAAUAUUACGUAAU	-0.833 ± 0.06	0.129 ± 0.079
UGCCAGCAAUAUUACGUCGU	-2.68 ± 0.14	-1.9 ± 0.15
UGGGAGCAAUAUUACGGGCA	-2.36 ± 0.16	-0.757 ± 0.16
AUUUAGCAAUAUUACGAAGG	-3.42 ± 0.38	-2.76 ± 0.41
GAUAAGCAAUAUUACGAUCU	0.509 ± 0.17	-1.55 ± 0.19

Sequence	self-splicing fitness (ln) (30 °C)	self-splicing fitness (ln) (37 °C)
AAGAAGCAAUAUUACGGUCA	-0.625 ± 0.088	0.197 ± 0.1
AUGGAGCAAUAUUACGGGGG	-3.55 ± 0.43	-2.21 ± 0.35
UCCGAGCAAUAUUACGUAAA	-2.8 ± 0.28	–
AUUCAGCAAUAUUACGUAUU	-0.474 ± 0.065	-0.558 ± 0.092
UUACAGCAAUAUUACGGAUA	-2.25 ± 0.21	-0.725 ± 0.12
GUCAAGCAAUAUUACGUGCC	-4.07 ± 0.2	-2.73 ± 0.19
CAAGAGCAAUAUUACGAUUU	-3.11 ± 0.2	-2.45 ± 0.16
UGCAAGCAAUAUUACGCAUA	-2.59 ± 0.2	-2.33 ± 0.2
ACGCAGCAAUAUUACGUCCG	-0.744 ± 0.085	-0.408 ± 0.1
ACAGAGCAAUAUUACGAAGC	-2.69 ± 0.26	–
ACCCAGCAAUAUUACGCUGA	-1.63 ± 0.087	-0.241 ± 0.092
GUUGAGCAAUAUUACGCCGC	-3.06 ± 0.44	-2.15 ± 0.5
GCCUAGCAAUAUUACGGCCU	-2.48 ± 0.18	-1.33 ± 0.24
CCCUAGCAAUAUUACGCCUA	–	-2.48 ± 0.34
UUACAGCAAUAUUACGCAAU	-1.23 ± 0.15	-2.23 ± 0.4
GUUUAGCAAUAUUACGACUG	-4.08 ± 0.39	-0.416 ± 0.23
AGCAAGCAAUAUUACGGGGG	-3.78 ± 0.15	-2.45 ± 0.19
ACCCAGCAAUAUUACGUGGG	-3.34 ± 0.11	-2.3 ± 0.13
UCUUAGCAAUAUUACGGCAU	-3.42 ± 0.33	-1.75 ± 0.23
UUAGAGCAAUAUUACGUACU	-3.2 ± 0.34	-1.81 ± 0.31
CCCGAGCAAUAUUACGCUUC	-3.7 ± 0.47	-2.32 ± 0.29
UAGCAGCAAUAUUACGUAAG	-1.91 ± 0.078	-0.435 ± 0.091
GGGAAGCAAUAUUACGACAG	-3.01 ± 0.31	-3 ± 0.37
AGGGAGCAAUAUUACGACCG	-1.92 ± 0.35	-0.586 ± 0.33
GACUAGCAAUAUUACGGAGG	–	-1.68 ± 0.4
